We go through 5 substances from publication PMC3627822.

Test [1] deals with sochicetin-C (Echis sochureki). As to the kind of experiment: ELISA. A general note: An ELISA detects its analyte on a solid surface through an enzyme-linked reagent.
The target of test [2] is sochicetin-A (Echis sochureki). In words: ELISA.
In test [3] the target is sochicetin-B (Echis sochureki). As to the kind of experiment: ELISA.
The target in test [4] is soluble integrin α2β1 ectodomain (UniProt P17301). In words: ELISA.
The target in test [5] is sochicetin-A αβ heterodimer (Echis sochureki). In words: SDS-PAGE, non-reduced against reduced and partly reduced + MALDI-TOF.

As usually defined, the Kd is the equilibrium constant for the complex coming apart. Low values mean tighter binding, high ones weaker binding. With “recombinant GST-tagged integrin α2 A-domain (domain or fragment)”, the Kd in test [1] was found to be 54.5 nM; in test [2], 11.7 nM; in test [3], 17.3 nM. What is called IC50 is the concentration that inhibits the measured activity by half. High values mean lower potency, low ones higher potency. As for sochicetin-A (complex), the IC50 in test [4] is 59.7 nM. Usually stoichiometry N stands for the number of molecules, sites or subunits per partner or assembly. With sochicetin-A αβ heterodimer (complex), the stoichiometry N in test [5] worked out at 3. The substance sochicetin-B (complex) had an IC50 in test [4] of 32.7 nM. Still for that read-out and setting: the result for sochicetin-C (complex) reads 1480 nM.
